Results reported in publication doi:10.1101/2022.08.24.505111 (bioRxiv, 2022).

Target: the molecule itself
Experiment: crystal structure

B1: Chloramphenicol acetyltransferase III (CATIII+GG construct) (enzyme)
chain: SGGNYTKFDVKNWVRREHFEFYRHRLPCGFSLTSKIDITTLKKSLDDSAYKFYPVMIYLIAQAVNQFDELRMAIKDDELIVWDSVDPQFTVFHQETETFSALSCPYSSDIDQFMVNYLSVMERYKSDTKLFPQGVTPENHLNISALPWVNFDSFNLNVANFTDYFAPIITMAKYQQEGDRLLLPLSVQVHHAVCDGFHVARFINRLQELCNSKLK
With B1 the “stoichiometry N” value was 3.
